As usually defined, the Kd is a measure of binding affinity in units of concentration.

“And” between values parts separate entries of the source, which are not always exact repeats. Equal entries are not always repeated.

From publication PMC8626583, “Collagen’s primary structure determines collagen:HSP47 complex stoichiometry” (The Journal of Biological Chemistry, 2021) come the findings set out here.

Assay [1] deals with T1, foldon-stabilized collagen model peptide with the guest GPRGFP. Briefly: AUC; sedimentation velocity with fluorescence detection; ATTO488-labelled foldon CMP at 1 μM with HSP47 at ratios (CMP:HSP47) 1:1 to 1:20; 20 mM HEPES, 150 mM NaCl pH 7.5; 42,000 rpm.
In assay [2] the target is T2, foldon-stabilized collagen model peptide with the guest GPRGPP. Described as above.
Assay [3] has as its target T1, foldon-stabilized collagen model …. Briefly: ELISA; collagen model peptides or collagen I coated on Nunc MaxiSorp (500 ng/well), blocked with 1% BSA in TBS; soluble HSP47 in a 1:4 dilution series from 8 or 10 μM; detected by anti-His-HRP; triplicates, four-parameter logistic fit. On the technique in general: In an ELISA, binding on a coated surface is turned into a signal by an enzyme label.

For assay [4], the target named is T2, foldon-stabilized collagen model …. The assay is described as above.

B1: HSP47 (heat shock protein 47), Canis lupus, residues 36-418 with C-terminal hexahistidine tag, C7C419 36-418 (natural protein)
chain: LSPKAATLAERSAGLAFSLYQAMAKDQAVENILLSPVVVASSLGLVSLGGKATTASQAKAVLSAEQLRDEEVHAGLGELLRSLSNSTARNVTWKLGSRLYGPSSVSFAEDFVRSSKQHYNCEHSKINFRDKRSALQSINEWAAQTTDGKLPEVTKDVERTDGALLVNAMFFKPHWDEKFHHKMVDNRGFMVTRSYTVGVTMMHRTGLYNYYDDEKEKLQIVEMPLAHKLSSLIILMPHHVEPLERLEKLLTKEQLKIWMGKMQKKAVAISLPKGVVEVTHDLQKHLAGLGLTEAIDKNKADLSRMSGKKDLYLASVFHATAFEWDTEGNPFDQDIYGREELRSPKLFYADHPFIFLVRDTQSGSLLFIGRLVRPKGDKMRDEL
As for B1, the stoichiometry N (HSP47 per CMP trimer) amounted to 1 in assay [1] and 2 in assay [2]. Moreover, the Kd in assay [3] is 12 nM; in assay [4] it was 36 nM and 21.7 nM.
